The stoichiometry N is the number of molecules, sites or subunits per partner or assembly.

For this test, the target named is concanavalin A. Kind of test: SEC; Superdex 200 Increase 10/300 GL, 50 mM Tris, 150 mM NaCl, 100 mM glucose; molecular weight calibrated with a gel filtration calibration kit. Background: SEC sorts molecules by how far they enter the pores of the column.

concanavalin A (natural protein) gave a stoichiometry N of 4.

The values are drawn from paper PMC6588694.
